Experimental data from patent US20150045291A1 (YEDA RESEARCH AND DEVELOPMENT, published 2015).

How the values were obtained:
Assay in all cases: cell-based or functional assay
[1] = molecular target: T1, HIV-1 HXB2 envelope protein (ENV), gp41 transmembrane subunit (HIV-1 HXB2, UniProt P04578 33-856)
[2] = molecular target: T1, HIV-1 HXB2 envelope protein (ENV), gp41 …; remark: listed apart in the source
[3] = molecular target: HIV-1 AD8 ENV (CCR5 tropic) (HIV-1 AD8)
[4] = molecular target: HIV-1 LAI ENV (CXCR4 tropic) (HIV-1 LAI, UniProt P03377 33-861)

Binder	IC50 (nM), antiviral activity in a fully infectious HIV-1 system [1] [nM]	also measured
LLQLTVWGIKQLQARIL [N17]	> 4000	
LLQLTVWGIKQLQA [N14]	> 4000	
YTSLIHSLIEESQNQQEKNK (sphinganine on the side chain of the C-terminal Lys) [DP19K-sphinganine]	350	
ELQLTQWKIKQLLARILK (sphinganine on the side chain of the C-terminal Lys) [N17mut (e, g) K-sphing]	120	
LLQLTVWGIKQLQARILK [N17K]	> 4000	
LLQLTVWGIKQLQARILK (sphinganine on the side chain of the C-terminal Lys) [N17K-sphinganine]	291	IC50 value, viral infectivity [2]: 287 nM
LLQLTVWGIKQLQARIL (sphingosine on the N-terminus) [Sphingosine-N17]	208	
LLQLTVWGIKQLQARIL (sphinganine (dihydrosphingosine) on the N-terminus) [Sphinganine-N17]	121	IC50, infection of TZM-bl cells by pseudotyped virus [3]: 403 nM; IC50, infection of TZM-bl cells by pseudotyped virus [4]: 312 nM
ELQLTQWKIKQLLARILK (sphinganine on the N-terminus) [Sphing-N17mut (e, g) K]	120	
YTSLIHSLIEESQNQQEKNK [DP19K]	2210	
ELQLTQWKIKQLLARILK [N17mut (e, g) K]	> 4000	
LLQLTVWGIKQLQARILK (sphinganine on the N-terminus) [Sphinganine-N17K]	118	inhibitory concentration at 50% infectivity (IC50) [2]: 116 nM
LLQLTVWGIKQLQARIL (palmitic acid (C16) on the N-terminus) [Palmitic acid-N17]	> 4000	
LLQLTVWGIKQLQA (sphinganine on the N-terminus) [Sphing-N14]	500	
LLQLTVWGIKQLQARIL (tocopherol (alpha-tocopherol succinate) on the N-terminus) [Tocopherol-N17]	> 4000	
LLQLTVWGIKQLQARIL (cholesterol on the N-terminus) [Cholesterol-N17]	> 4000	
LQARILAVERYLKDQQL (sphinganine on the N-terminus) [Sphinganine-ShN17]	886	
